Measurements reported in patent US20220195047A1 (TCRCURE BIOPHARMA, published 2022).

Experiments:
[1] = biological target: T1, human PD-1 protein (hPD-1) on cell surface of 293T-PD-1 cells (human, UniProt Q15116 25-287); test: flow cytometry on 293T-PD-1 cells
T1 construct: Human PD-1 expressed in HEK293T cells, either by lentiviral transduction or by the pCMV6-ENTRY PDCD1 cDNA RC210364; also called PDCD1 (RC210364) in HEK293T cells
Protocol: (§1) The cells were then stained with a secondary antibody (APC-anti-Hu IgG Fc for humanized antibodies and FITC-anti-Mouse IgG F(ab′)2 for F02) for 30 minutes (1:50), followed by flow cytometric analysis. The results were analyzed through Prism 7 and Kd values were determined by the program.

[2] = biological target: T2, recombinant biotinylated human PD-1 (human, UniProt Q15116 25-170, limits assumed, biotinylated (site not stated)); test: ELISA, antibody coated, biotinylated rhPD-1 titrated, Sav-HRP detection
T2 construct: also called rhPD-1; recombinant human PD-1 protein
Protocol: 5 μg/ml of anti-PD1 antibody in 100 μl coating buffer was coated in the microwells at 4° C. overnight. By following the ELISA procedure, a 5-fold serial dilution of recombinant biotinylated human PD-1 was added to the assay plate pre-coated with anti-PD1 antibodies. The bound human PD-1 protein was then detected with Sav-HRP reagent. The results were analyzed through Prism 7 and Kd values were determined by the program.

[3] = biological target: T1, human PD-1 protein (hPD-1) on cell …; test: flow cytometry on 293T-PD-1 cells, 4 C for 60 min, secondary FITC-anti-Mouse IgG F(ab')2; y axis hPD-1%
Protocol: as §1

[4] = biological target: T1, human PD-1 protein (hPD-1) on cell …; test: flow cytometry on 293T-PD-1 cells, 4 C for 60 min, secondary APC-anti-Hu IgG Fc; y axis hPD-1%
Protocol: as §1

T2 sequence (Q15116 25-170 limits assumed): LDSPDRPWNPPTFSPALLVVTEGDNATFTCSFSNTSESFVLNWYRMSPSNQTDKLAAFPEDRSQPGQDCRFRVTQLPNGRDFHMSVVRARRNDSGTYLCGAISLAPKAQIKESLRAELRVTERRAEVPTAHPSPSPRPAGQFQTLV
T1 sequence (Q15116 25-287 limits assumed): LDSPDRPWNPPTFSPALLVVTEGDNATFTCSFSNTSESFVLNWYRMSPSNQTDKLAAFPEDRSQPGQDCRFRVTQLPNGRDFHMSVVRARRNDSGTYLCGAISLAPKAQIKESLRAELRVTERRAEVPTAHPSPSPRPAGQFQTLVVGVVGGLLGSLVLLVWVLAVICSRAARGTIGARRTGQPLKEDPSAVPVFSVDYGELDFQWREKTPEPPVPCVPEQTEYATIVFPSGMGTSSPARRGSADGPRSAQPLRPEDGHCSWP

| Binder | Kd [1] [nM] | Kd [2] [nM] | EC50 (read off the curve) [3] [µg/mL] | EC50 (read off the curve) [4] [µg/mL] |
| --- | --- | --- | --- | --- |
| F02 anti-PD-1 antibody (antibody, V domains shown, Mouse monoclonal antibody from hybridoma clone #11, detected with anti-mouse IgG F(ab')2; Only the variable domains are tied to F02; also called anti-PD-1 antibody from hybridoma clone #11; clone #11) VH: QQPGAELVKPGASVKLSCRASGYTFTNYYLYWVKQRPGQGLEWIGGINPSNGGTNFNEKFRGKATLTVDKSSSTAYMQLSSLTSEDSAVYFCTRRDYNYDGGFDYWGQGSTLTVSS VL: DIVLTQSPASLAVSLGQRATISCRASKSVSTSGFNYMHWYQQKPGQPPKLLIYLASNLDSGVPARFSGSGSGTDFTLNIHPVEEEDAATYYCQHGRELPLTFGAGTKLELRR | 0.07 | 0.14 | ~0.01 |  |
| Ab5 anti-PD-1 antibody (antibody, V domains shown, Humanized antibody, detected with anti-human IgG Fc) VH: QVQLQQSGAEVKKPGSSVKVSCKASGYTFTNYYLYWVRQAPGQGLEWIGGINPSNGGTNFNEKFRGRVTITADESSTTAYMELSSLRSEDTAFYFCTRRDYNYDGGFDYWGQGTTVTVSS VL: DIVMTQSPSSLSASVGDRVTITCRASKSVSTSGFNYMHWYQQTPGKAPKLLIYLASNLDSGVPARFSGSGSGTDFTFTISSLQEEDIATYYCFHGRELPLTFGQGTKLQITR | 3.69 |  |  | ~0.5 |
| Ab4 anti-PD-1 antibody (antibody, V domains shown, Humanized antibody, detected with anti-human IgG Fc) VH: QVQLQQSGAEVKKPGSSVKVSCKASGYTFTNYYLYWVRQAPGQGLEWIGGINPSNGGTNFNEKFRGRVTITADESSTTAYMELSSLRSEDTAFYFCTRRDYNYDGGFDYWGQGTTVTVSS VL: DIQMTQSPSSLSASVGDRVTITCRASKSVSTSGFNYMHWYQQTPGKAPKLLIYLASNLDSGVPARFSGSGSGTDFTFTISSLQEEDIATYYCFHGRELPLTFGQGTKLQITR | 41 |  |  | ~3 |
| Ab8 anti-PD-1 antibody (antibody, V domains shown, Humanized antibody, detected with anti-human IgG Fc) VH: EVQLQESGAEVKKPGSSVKVSCKASGYTFTNYYLYWVRQAPGQGLEWMGGINPSNGGTNFNEKFRGRVTITADESTSTAYMELSSLRSEDTAVYYCARRDYNYDGGFDYWGQGTTVTVSS VL: DIVMTQSPDSLAVSLGERATINCRASKSVSTSGFNYMHWYQQKPGQPPKLLIYLASNLDSGVPDRFSGSGSGTDFTLTIRPLQAEDVAVYYCQHGRELPLTFGQGTKLEIK | 0.65 | 0.32 |  | ~0.1 |
| h11 anti-PD-1 antibody (antibody, V domains shown, Humanized antibody derived from F02, detected with anti-human IgG Fc; also called hl 1) VH: QVQLVQSGAEVKKPGASVKVSCKASGYTFTNYYMYWVRQAPGQGLEWIGGINPSNGGTNFNEKFKNKATMTVDKSTSTAYMELSSLRSEDTAVYYCTRRDYNYDGGFDYWGQGTLVTVSS VL: DIVLTQSPATLSLSPGERATLSCRASKSVSTSGFNYMHWYQQKPGQAPRLLIFLASNLASGVPARFSGSGSGTDFTLTISSLEPEDFAVYYCQHGRELPLTFGQGTKLEI | 0.55 | 0.29 |  | ~0.07 |

Next, values leading:

| Kd [1] [nM] | Kd [2] [nM] | EC50 (read off the curve) [3] [µg/mL] | EC50 (read off the curve) [4] [µg/mL] | Binder |
| --- | --- | --- | --- | --- |
| 2.3 | 0.68 |  | ~0.3 | Ab7 anti-PD-1 antibody (antibody, V domains shown, Humanized antibody, detected with anti-human IgG Fc) VH: QVQLQQSGAEVKKPGSSVKVSCRASGYTFTNYYLYWVRQAPGQGLEWIGGINPSNGGTNFNEKFRGRVTITADESSTTAYMELSSLRSEDTAFYFCTRRDYNYDGGFDYWGQGTTVTVSS VL: DIVMTQSPSSLSASVGDRVTITCRASKSVSTSGFNYMHWYQQTPGKAPKLLIYLASNLDSGVPARFSGSGSGTDFTFTISSLQEEDIATYYCFHGRELPLTFGQGTKLQITR |
| 3.24 |  |  | ~0.4 | Ab2 anti-PD-1 antibody (antibody, V domains shown, Humanized antibody, detected with anti-human IgG Fc) VH: QVQLQQSGAEVKKPGSSVKVSCKASGYTFTNYYLYWVRQAPGQGLEWIGGINPSNGGTNFNEKFRGRVTITADESSTTAYMELSSLRSEDTAFYFCTRRDYNYDGGFDYWGQGTTVTVSS VL: DIQMTQSPSSLSASVGDRVTITCRASKSVSTSGFNYMHWYQQTPGKAPKLLIYLASNLDSGVPSRFSGSGSGTDFTFTISSLQPEDIATYYCFHGRELPLTFGQGTKLQITR |
